In patent publication US20250388673A1 (HIFIBIO, published 2025):
Where a chain is given by its changes, count along the chain named.

T1: human BTLA (human, UniProt Q7Z6A9 31-289)
T1 construct: also called hBTLA; HEK293.hBTLA
T1 sequence: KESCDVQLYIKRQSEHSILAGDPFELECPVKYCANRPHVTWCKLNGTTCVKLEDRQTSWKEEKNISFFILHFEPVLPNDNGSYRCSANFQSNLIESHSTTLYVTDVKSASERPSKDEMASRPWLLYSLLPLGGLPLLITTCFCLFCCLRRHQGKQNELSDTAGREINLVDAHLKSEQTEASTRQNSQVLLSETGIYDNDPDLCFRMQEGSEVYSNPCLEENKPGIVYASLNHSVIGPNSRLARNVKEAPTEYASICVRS

B1: HFB6-4hz7-hG1 (antibody, human IgG1, V domains shown)
VH: QVQLVQSGAEVKKPGSSVKVSCKTSGFNIKDTYIHWVRQAPGQGLEWIGRNDPANGNTKYAQKFQGRATITADESTSTAYMELSSLRSEDTAVYYCASYEGYYERFGYWGQGTLVTVSS
VL: DVVMTQSPLSLPVTLGQPASISCRSSQSLLDRDGKTYLNWLQQRPGQSPRRLIYLVSKRDSGVPDRFSGSGSGTDFTLKISRVEAEDVGVYYCWQDTHFPYTFGQGTKLEIK
notes: Humanized variant of HFB6-4, human IgG1 (hG1)
B2: HFB6-4hz8-hG1 (antibody, human IgG1, V domains shown)
VH: B1 VH with S16A, A68V, I70M, E74T, A79V
VL: B1 VL
notes: as for B1
B3: HFB6-4hz9-hG1 (antibody, human IgG1, V domains shown)
VH: EVQLVESGGGLVQPGRSLRLSCTTSGFNIKDTYIHWFRQAPGKGLEWVGRNDPANGNTKYTASFKGRATISADGSKSIAYLQMNSLKTEDTAVYYCASYEGYYERFGYWGQGTLVTVSS
VL: B1 VL
notes: as for B1
B4: HFB6-4hz10-hG1 (antibody, human IgG1, V domains shown)
VH: EVQLVESGGGLVQPGGSLKLSCATSGFNIKDTYIHWVRQASGKGLEWIGRNDPANGNTKYAASFKGRATISADDSKNTAYLQLNSLKTEDTAVYYCASYEGYYERFGYWGQGTLVTVSS
VL: B1 VL
notes: as for B1
B5: HFB6-4hz11-hG1 (antibody, human IgG1, V domains shown)
VH: QVQLQESGPGLVKPSGTLSLTCAVSGFNIKDTYIHWVRQPPGKGLEWIGRNDPANGNTKYNPSFKSRATISADKSKNQASLKLSSVTAADTAVYYCASYEGYYERFGYWGQGTLVTVSS
VL: B1 VL
notes: as for B1
B6: HFB6-4hz12-hG1 (antibody, human IgG1, V domains shown)
VH: EVQLVQSGAEVKKPGESLKISCKTSGFNIKDTYIHWVRQMPGKGLEWIGRNDPANGNTKYSPSFQGQVTISADKSISTAYLQLSSLKASDTAMYYCASYEGYYERFGYWGQGTLVTVSS
VL: B1 VL
notes: as for B1
B7: HFB6-4hz13-hG1 (antibody, human IgG1, V domains shown)
VH: B1 VH
VL: EIVLTQSPGTLSLSPGERATLSCRSSQSLLDRDGKTYLNWLQQKPGQAPRRLIYLVSKLDSGIPDRFSGSGSGTDFTLTISRLEPEDFAVYYCWQDTHFPYTFGQGTKLEIK
notes: as for B1
B8: HFB6-4hz14-hG1 (antibody, human IgG1, V domains shown)
VH: B1 VH with S16A, A68V, I70M, E74T, A79V
VL: B7 VL
notes: as for B1
B9: HFB6-4hz15-hG1 (antibody, human IgG1, V domains shown)
VH: B3 VH
VL: B7 VL
notes: as for B1
B10: HFB6-4hz16-hG1 (antibody, human IgG1, V domains shown)
VH: B4 VH
VL: B7 VL
notes: as for B1
B11: HFB6-4hz17-hG1 (antibody, human IgG1, V domains shown)
VH: B5 VH
VL: B7 VL
notes: as for B1
B12: HFB6-4hz18-hG1 (antibody, human IgG1, V domains shown)
VH: B6 VH
VL: B7 VL
notes: as for B1
B13: HFB6-4hz19-hG1 (antibody, human IgG1, V domains shown)
VH: B1 VH
VL: DIVMTQSPDSLAVSLGERATINCKSSQSLLDRDGKTYLNWLQQKPGQSPKRLIYLVSKLDSGVPDRFSGSGSGTDFTLTISSLQAEDLAVYYCWQDTHFPYTFGQGTKLEIK
notes: as for B1
B14: HFB6-4hz20-hG1 (antibody, human IgG1, V domains shown)
VH: B1 VH with S16A, A68V, I70M, E74T, A79V
VL: B13 VL
notes: as for B1

What follows are binders tested against T1, human BTLA (assay: flow cytometry, HEK293 cells overexpressing human BTLA).
Description: HEK293 cells overexpressing human BTLA and Expi293 cells overexpressing cynomolus BTLA were incubated with different concentrations of humanized anti-BTLA antibodies. Anti-BTLA antibody binding to target cells were quantified with an AF647-conjugated anti-human IgG Fc secondary antibody by flow cytometry.

**Q.** Does B1 bind?
**A.** binds

**Q.** Does B2 bind?
**A.** binds

**Q.** Does B3 bind?
**A.** binds

**Q.** Does B4 bind?
**A.** binds

**Q.** Does B5 bind?
**A.** binds

**Q.** Does B6 bind?
**A.** binds

**Q.** Does B7 bind?
**A.** binds

**Q.** Does B8 bind?
**A.** binds

**Q.** Does B9 bind?
**A.** binds

**Q.** Does B10 bind?
**A.** binds

**Q.** Does B11 bind?
**A.** binds

**Q.** Does B12 bind?
**A.** binds

**Q.** Does B13 bind?
**A.** binds

**Q.** Does B14 bind?
**A.** binds
